Source: the supplement of paper PMC9170038

System: K4 kissing-loop RNA reporter
Test: apparent KD of K4 kissing-loop reporter; higher = weaker reporter binding
Conditions: Eterna round: R107
Procedure: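 RNA-MaP round R107: designed RNA switches with theophylline, tryptophan, arginine or FMN aptamers are transcribed on-chip within common flanks. They are titrated with a labelled K4 kissing-loop RNA reporter in RNA-MaP buffer (100 mM Tris pH 7.5, 80 mM KCl, 4 mM MgCl2), without ligand or with the indicated ligand. Median apparent KD per design.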

[1] = input ligand: theophylline 20 uM
[2] = input ligand: tryptophan 2.4 mM
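Further: bound reporter read as fluorescence of individual clusters on recovered sequencing chips by microscopy, with normalized cluster intensities fitted with a binding model.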

| Sequence | apparent KD of K4 kissing-loop reporter (input ligand: FMN 200 uM) [nM] | apparent KD of K4 kissing-loop reporter (input ligand: arginine 13.2 mM) [nM] | apparent KD of K4 kissing-loop reporter (input ligand: none) [nM] | apparent KD of K4 kissing-loop reporter [1] [nM] | apparent KD of K4 kissing-loop reporter [2] [nM] |
| --- | --- | --- | --- | --- | --- |
| AAGAAGAAUGGAAGGAGCGAGCAGAAAUAACCAGUGAUGUUGGAAAGCCUUAUUGCUUAAGCUCAGGUAGGUCGCCAAGAAAAGA [Mostly trial and error] | 158 | 181 | 205 | 226 | 171 |
| AAGACCUGCAUCGAUACCAGCCCAGUGAUGUUGGGCUGCUCUCCAUGGGUGCCAGACACGGGCCCUUGGCAGCGAGGUAGGGCCC [Zazadilabi] | 136 | 106 | 117 | 93.1 | 103 |
| AAGAGAGCGAGAAGGAGCGAGAAAGCUAGUGCAUAUGCACUAGCAAAGCAGUGAUGUUGCACUCAGGUAGGUCGCUCGCUCUCAA [AK1.2 SS Arginine B] | 384 | 292 | 350 | 395 | 291 |
| AAGCAGUCACCCGAAGCCAUCGAAGAUGGACGAGGACCGGUACGGCCGCCACUCGGAGUGAUGUUCCGAAGACUGCAAAAUAAAA | 269 | 272 | 302 | 304 | 412 |
| AAGCAGUCACUCGAAAUCAUCGAAGAUGAACGAGGACCGGUACGGCCGCCACUCGGAGUGAUGUUCCGAAGACUGCAAAAUAAAA [MatMod 1 - Jieux - Exclusion - Tryptophan A] | 593 | 410 | 475 | 477 | 106 |
| AAGCAGUCACUCGAACCCAUCGAAGAUGGGCGAGGACCGGUACGGCCGCCACUCGGAGUGAUGUUCCGAAGACUGCAAAAUAAAA | 329 | 367 | 293 | 341 | 555 |
| AAGCAGUCACUCGAAGCCAUCGAAGAUGGGCGAGGACCGGUACGGCCGCCACUCGGAGUGAUGUUCCGAGGACUGCAAAAUAAAA [MatMod 4 - Jieux - Exclusion - Tryptophan A] | 507 | 365 | 350 | 299 | 311 |
| AAGCAGUCACUCGACACCAUCGAAGAUGGGCGAGGACCGGUACGGCCGCCACUCGGAGUGAUGUUCUGAUGACUGCAAAAUAAAA [MatMod 9 - Jieux - Exclusion - Tryptophan A] | 99.9 | 60.1 | 86.3 | 158 | 75.6 |
| AAGCAGUCACUCGACGCCAUCGAAGAUGGGCGAGGACCGGUACGGCCGCCACUCGGAGUGAUGUUCCGAAGACUGCAAAAUAAAA [MatMod 6 - Jieux - Exclusion - Tryptophan A] | 356 | 317 | 384 | 329 | 480 |
| AAGCAGUCACUCGCAGCCAUCGAAGAUGGUCGAGGACCGGUACGGCCGCCACUCGGAGUGAUGUUCCGAAGACUGCAAAAUAAAA | 281 | 259 | 282 | 325 | 400 |
| AAGCAGUCAGGAUCGAAGAUCCUGCAAUACCGAGGACCGGUACGGCCGCCACUCGGAGUGAUGUUCCGAAGACUGCAAAAUAAAA [#SwitchBubble 7] | 436 | 255 | 243 | 57.9 | 152 |
| AAGCAGUUCUCAAAGAGUACUGCAGGACAGCAGGAUAUAGUGAUGUUGAGAAGGGCUGUCCCGUCUGCAUGAAACAUGCAGACGA [Simply curious] | 1350 | 688 | 808 | 1290 | 688 |
| AAGCCAUACUCGGCCGCCACUUACUUCGUUGCAGUGAUGUUGCACACGAAUCCGUCAUAGCAAAUAAGGACCGGGAGAUAUACCG [theeternabot_exclusion_KL_Trp_B_19] | 89.3 | 89.3 | 95.1 | 87.5 | 86.3 |
| AAGGUUUAGCACGAUACCAGCCUGGAGGCCAGUGAUGUUGGCCGAUUUGAACAGAAUUAAGGCCCUUGGCAGCGUCUCUAAAACC [Dierra] | 191 | 180 | 192 | 144 | 176 |
| AAGUACACGAUAGUGUACACCUAGUGAUGUUAGGAUAUGCAGAUAUGCAGAAGGAACAAGUCAUCUGACAAUAGUCGGAUGACAA [FmnAX 6 #OpenEnded #K4Early] | 577 | 75.5 | 109 | 110 | 98 |
| AAGUAGCUCUCGGCCGCCACUCCUCAGUGAUGUUGAGAUUUUUUCUGCCAAUUGGCGUUUUUUUAGAGGACCGGGAGAGCUACAA [AK1 SS Tryptophan B] | 332 | 365 | 339 | 291 | 124 |
